Read-outs that look alike come from different tables or passages of the source.

Holding throughout (experiment): EMSA
Data set [1] concerns the target T1, Tcf3 B-HLH domain (E47);Ascl1 B-HLH domain (;, UniProt P15806-2;Q02067 ;, |).
T1 sequence 1: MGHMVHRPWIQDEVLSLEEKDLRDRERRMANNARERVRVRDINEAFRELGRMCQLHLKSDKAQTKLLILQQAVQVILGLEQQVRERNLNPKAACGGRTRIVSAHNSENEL
T1 sequence 2: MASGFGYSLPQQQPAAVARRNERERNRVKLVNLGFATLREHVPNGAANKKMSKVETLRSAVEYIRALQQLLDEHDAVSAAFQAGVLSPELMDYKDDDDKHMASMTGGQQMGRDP

Data set [2] has as its target T1, Tcf3 B-HLH domain (E47);Ascl1 B-HLH …. The source holds these as a separate data set.
Data set [3] addresses T2, Tcf3 B-HLH domain (E47) (UniProt P15806-2).
T2 sequence: T1 sequence 1

The target of data set [4] is Tcf4 B-HLH domain (UniProt Q60722).
The target of data set [5] is Tcf12 B-HLH domain (UniProt Q61286).
Data set [6] has as its target T3, Ascl1 B-HLH domain (UniProt Q02067).
T3 sequence: T1 sequence 2

In data set [7] the target is Tcf12 B-HLH domain;Ascl1 B-HLH domain (;, UniProt Q61286;Q02067 ;, |).
Data set [8] has as its target Tcf4 B-HLH domain;Ascl1 B-HLH domain (;, UniProt Q60722;Q02067 ;, |).

B1: weak E-box CGCAA|ATG 28-mer C(a)|C(b) (dsDNA)
DNA 1: CTGACCCATACGCAAATGTCTGACTGAC
DNA 2: GTCAGTCAGACATTTGCGTATGGGTCAG
With B1, the binding signal in data set [1] was ~100 fold weaker than N1.

B2: CGCAG|GTG 28-mer 5caC(a)|5caC(b) (dsDNA)
DNA 1: CTGACCGATACGCAGGTGCCTGACTGAC
DNA 2: GTCAGTCAGGCACCTGCGTATCGGTCAG
modifications: 5caC at C11 of strand 1 and C17 of strand 2
As for B2, the binding signal in data set [2] was ~10 fold binding vs N1; in data set [3] it was ~2 fold binding vs N1; in data set [4], ~3 fold binding vs N1; in data set [5], ~4 fold binding vs N1; in data set [6], ~6 fold binding vs N1; in data set [7], ~10 fold binding vs N1. Further, in data set [8], the binding signal was ~6 fold binding vs N1.

B3: weak E-box CGCAA|ATG 28-mer 5caC(a)|5caC(b) (dsDNA)
DNA 1: CTGACCCATACGCAAATGTCTGACTGAC
DNA 2: GTCAGTCAGACATTTGCGTATGGGTCAG
modifications: 5caC at C11 of strand 1 and C17 of strand 2
Consider B3, for which the binding signal in data set [1] is ~10 fold binding vs N8.

(Values after PMC6258048.)
